Results from patent US20260034230A1 (Regeneron, published 2026).

Experiments:
[1] = molecular target: T1, REGN2431 (hmm.hTfRC): monomeric human Tfrc ectodomain (C89-F760) with N-terminal hexahistidine-myc-myc tag (human, UniProt P02786 89-760); experiment: SPR Biacore, IgG captured by anti-hFc, 25 C
T1 construct: also called hmm.hTfR(C89-F763); hTFR-mmh
Procedure: (§1) Biacore binding kinetics assays were conducted for the interaction of 32 anti-human TfR IgG1 monoclonal antibodies from CHO supernatants with TfR reagents at 25° C.
(§2) Equilibrium dissociation constants (KD) for the interaction of anti-TfR monoclonal antibodies with human and fascicularis monkey TfR ecto domain recombinant proteins were determined using a real-time surface plasmon resonance (SPR) based Biacore S200 biosensor. All binding studies were performed in 10 mM HEPES, 150 mM NaCl, 3 mM EDTA, and 0.05% v/v surfactant Tween-20, pH 7.4 (HBS-EP) running buffer at […]. The Biacore CM5 sensor surface was first derivatized by amine coupling with a monoclonal mouse anti-human Fc antibody (REGN2567) followed by a step to capture anti-TfR monoclonal antibodies in CHO conditioned media. […] The dissociation of TfR bound to anti-TfR monoclonal antibodies was monitored for 3 minutes in HBS-EP running buffer. At the end of each cycle, the anti-TfR monoclonal antibodies capture surface was regenerated using a 12-see injection of 20 mM H₃PO₄. The association rate (ka) and dissociation rate (kd) were determined by fitting the real-time binding sensorgrams to a 1:1 binding model with mass transport limitation using Scrubber 2.0c software. The dissociation equilibrium constant (KD) and dissociative half-life (t %) were calculated from the kinetic rate constants as: […]

[2] = molecular target: T2, REGN2054 (mf TFRC ecto-mmh): monomeric monkey (cyno) Tfrc ectodomain (C89-F760) with C-terminal … (monkey (cyno, Macaca fascicularis), UniProt H9EXL1 89-760); experiment: SPR Biacore, IgG captured by anti-hFc, 25 C
T2 construct: range 89-760; also called mfTFR-mmh; mfTfR-mmh
T2 sequence (chain, as listed by the source): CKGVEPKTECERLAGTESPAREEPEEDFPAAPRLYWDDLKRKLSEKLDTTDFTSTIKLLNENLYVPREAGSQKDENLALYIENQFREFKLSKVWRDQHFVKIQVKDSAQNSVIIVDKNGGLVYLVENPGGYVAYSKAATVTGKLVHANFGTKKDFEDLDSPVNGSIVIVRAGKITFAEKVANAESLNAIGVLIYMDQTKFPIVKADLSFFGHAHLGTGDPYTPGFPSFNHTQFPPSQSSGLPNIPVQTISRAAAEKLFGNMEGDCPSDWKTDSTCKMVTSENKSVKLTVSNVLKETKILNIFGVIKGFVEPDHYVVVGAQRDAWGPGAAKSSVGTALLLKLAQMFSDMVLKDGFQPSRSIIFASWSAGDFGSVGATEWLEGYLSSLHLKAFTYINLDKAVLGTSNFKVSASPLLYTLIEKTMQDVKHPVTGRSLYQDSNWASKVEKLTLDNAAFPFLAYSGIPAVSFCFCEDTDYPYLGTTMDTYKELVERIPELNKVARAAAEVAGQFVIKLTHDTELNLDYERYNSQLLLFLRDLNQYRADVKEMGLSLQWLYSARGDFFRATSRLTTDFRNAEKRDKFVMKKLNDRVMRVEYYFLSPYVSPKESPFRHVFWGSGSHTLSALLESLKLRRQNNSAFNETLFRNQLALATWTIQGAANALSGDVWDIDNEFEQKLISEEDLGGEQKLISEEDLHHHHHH
Procedure: as §1, §2

T1 sequence (P02786 other isoform, or with tags, fused parts or gaps): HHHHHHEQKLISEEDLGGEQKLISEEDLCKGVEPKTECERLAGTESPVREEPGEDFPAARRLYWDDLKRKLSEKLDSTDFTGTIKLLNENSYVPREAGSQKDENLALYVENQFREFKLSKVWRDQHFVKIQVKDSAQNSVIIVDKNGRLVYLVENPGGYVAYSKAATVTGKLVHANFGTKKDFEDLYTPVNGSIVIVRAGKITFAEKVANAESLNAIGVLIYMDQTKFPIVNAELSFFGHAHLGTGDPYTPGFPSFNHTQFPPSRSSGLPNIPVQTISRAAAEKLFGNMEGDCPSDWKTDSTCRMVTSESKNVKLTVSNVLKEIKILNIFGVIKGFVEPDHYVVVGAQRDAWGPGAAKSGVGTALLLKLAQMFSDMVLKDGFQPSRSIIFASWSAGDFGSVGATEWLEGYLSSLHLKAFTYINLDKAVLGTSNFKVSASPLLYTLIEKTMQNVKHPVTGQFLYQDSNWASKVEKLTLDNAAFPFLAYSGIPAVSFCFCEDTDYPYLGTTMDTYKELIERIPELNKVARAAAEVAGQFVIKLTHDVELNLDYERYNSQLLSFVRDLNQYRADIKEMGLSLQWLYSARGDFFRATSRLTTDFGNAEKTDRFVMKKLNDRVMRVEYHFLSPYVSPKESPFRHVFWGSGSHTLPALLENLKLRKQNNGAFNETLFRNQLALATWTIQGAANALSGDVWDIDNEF

t1/2 [1] [min] | t1/2 [2] [min] | Binder
395 | 21.8 | 12802B anti-hTfR monoclonal antibody (bivalent IgG1) (antibody, V domains shown, hIgG1/kappa) VH: QVQLVESGGGLVKPGGSLRLSCAASGFTFSDYFMSWIRQAPGKGLEWVSYISSTGSTINYADSVKGRFTISRDNVKNSLYLQMTSLRVEDTAVYYCTRDNWNYEYWGQGTLVTVSS VL: EIVMTQSPATLSVSPGERATLSCRASQSVSINLAWYQQKPGQAPRLLIFVASTRATGIPARFSGSGSGTEFTLTISSLQSEDFATYYCQQYDIWPYTFGQGTKLEIKR
232 | 12 | 12848B anti-hTfR monoclonal antibody (bivalent IgG1) (antibody, V domains shown, hIgG1/kappa; also called H1H12848B; REGN17515) VH: EVQLVESGGGLVQPGRSLTLSCAASGFTFDNFGMHWVRQGPGKGLEWVSGLTWNSGVIGYADSVKGRFTISRDNAKNSLYLQMNSLRPEDTALYYCAKDIRNYGPFDYWGQGTLVTVSS VL: not shown
95 | 15.7 | 12844B anti-hTfR monoclonal antibody (bivalent IgG1) (antibody, V domains shown, hIgG1/kappa) VH: EVQLVESGGSVVRPGGSLRLSCEASGFTFDDYGMSWVRQDPGKGLEWVSGINWNGDRTNYADSVKGRFIISRDNAKNSVYLQMNSLRAEDSALYHCARDQGLGVAATLDYWGQGTLVTVSS VL: not shown
108 | 25.5 | 12808B anti-hTfR monoclonal antibody (bivalent IgG1) (antibody, V domains shown, hIgG1/kappa) VH: QLQLQESGPGLVKPSETLSLTCTVSGESISSNTYYWGWIRQPPGKGLEWIGSIDYSGTTNYNPSLKSRVTISVDTSRNHFSLRLRSVTAADTAVYYCAREWGNYGYYYGMDVWGQGTTVTVSS VL: DIQMTQSPSSLSASVGDRVTINCRASQGIRNDLGWYQQKPGKAPKRLIYAASSLQSGVPLRFSGSGSGTEFTLTINNLQPEDFATYYCLSHNSYPWTFGQGTKVEIKR
27.7 | 6.9 | 12835B anti-hTfR monoclonal antibody (bivalent IgG1) (antibody, V domains shown, hIgG1/kappa; also called H1H12835B; REGN17509) VH: EVQLVESGGGLIQPGGSLRLSCEASGFTFRNYEMNWVRQAPGKGLEWVSYISSSGNMKDYAESVKGRFTISRDNVKNSLQLQMNSLRVEDTAVYYCARDEFPYGMDVWGQGTTVTVSS VL: not shown
68.8 | 9.8 | 12843B anti-hTfR monoclonal antibody (bivalent IgG1) (antibody, V domains shown, hIgG1/kappa; also called H1H12843B; REGN17512) VH: EVQLVESGGGLVQPGGSLRLSCAASGFTFNIFEMNWVRQAPGKGLEWISYISSRGTTTYYADSVRGRFTISRDNAKNSLYLQMNSLRAEDTAVYYCARDYEATIPFDFWGQGTLVTVSS VL: not shown
67.6 | 34.7 | 12847B anti-hTfR monoclonal antibody (bivalent IgG1) (antibody, V domains shown, hIgG1/kappa; also called H1H12847B; REGN17514) VH: EVQLVESGGGLVQPGRSLRLSCAASGFTFDDYAMNWVRQAPGKGLEWVSGISWSSGSMDYADSVKGRFTISRDNAKNSLYLQMNSLRTEDTALYYCAKAREVGDYYGMDVWGQGTTVTVSS VL: not shown
